This assay addresses IL-4 receptor alpha (IL-4Ra) (UniProt P24394). Put plainly: cell-based or functional assay.

The results in this text go back to patent US8209131.

IL-4 receptor alpha (IL-4Ra), sequence (P24394 26-825 limits assumed): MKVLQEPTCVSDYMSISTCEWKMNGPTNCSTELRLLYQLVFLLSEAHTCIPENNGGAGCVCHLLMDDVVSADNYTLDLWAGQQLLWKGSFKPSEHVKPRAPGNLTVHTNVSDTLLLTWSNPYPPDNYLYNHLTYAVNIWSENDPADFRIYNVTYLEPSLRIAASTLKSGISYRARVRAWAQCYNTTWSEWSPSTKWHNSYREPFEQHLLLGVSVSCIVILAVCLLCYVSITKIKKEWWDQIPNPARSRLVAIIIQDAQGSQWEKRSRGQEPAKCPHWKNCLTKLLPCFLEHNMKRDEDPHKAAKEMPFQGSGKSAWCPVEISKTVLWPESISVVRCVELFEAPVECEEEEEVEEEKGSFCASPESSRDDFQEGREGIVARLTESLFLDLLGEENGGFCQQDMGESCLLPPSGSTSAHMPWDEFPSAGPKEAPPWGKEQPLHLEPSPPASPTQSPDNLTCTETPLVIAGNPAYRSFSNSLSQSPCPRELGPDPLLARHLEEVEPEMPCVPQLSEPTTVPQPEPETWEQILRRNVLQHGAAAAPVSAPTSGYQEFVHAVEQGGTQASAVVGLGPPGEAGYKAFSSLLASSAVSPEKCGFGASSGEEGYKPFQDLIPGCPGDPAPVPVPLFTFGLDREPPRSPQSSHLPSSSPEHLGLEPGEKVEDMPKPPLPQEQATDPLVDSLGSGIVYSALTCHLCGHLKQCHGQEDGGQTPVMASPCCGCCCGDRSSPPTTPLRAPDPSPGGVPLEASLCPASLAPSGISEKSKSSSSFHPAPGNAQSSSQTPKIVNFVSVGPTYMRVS

The substance “IL-4 mutant K21A (from UniProt P05112 25-153) (ligand)” displayed a Conc needed for 50% growth (TF1.8 Bioassay), average of 1.36 ng/mL. Take “IL-4 mutant R81A (from UniProt P05112 25-153) (ligand)”: the Conc needed for 50% growth (TF1.8 Bioassay), average is 4.85 ng/mL. The result for “IL-4 mutant K84A (from UniProt P05112 25-153) (ligand)” reads 2.95 ng/mL; that for “IL-4 double mutant K77A/R81A (from UniProt P05112 25-153) (ligand)”, 1.65 ng/mL. On to “IL-4 double mutant K77A/R53A (from UniProt P05112 25-153) (ligand)”, for which the Conc needed for 50% growth (TF1.8 Bioassay), average is 11.3 ng/mL. “IL-4 mutant R53A (from UniProt P05112 25-153) (ligand)” yielded a Conc needed for 50% growth (TF1.8 Bioassay), average of 9.39 ng/mL. Substance “IL-4 double mutant K77A/K84A (from UniProt P05112 25-153) (ligand)” yielded a Conc needed for 50% growth (TF1.8 Bioassay), average of 1.69 ng/mL.

Take “IL-4 mutant K12A (from UniProt P05112 25-153) (ligand)”: the Conc needed for 50% growth (TF1.8 Bioassay), average turned out to be 0.6 ng/mL.

As to “IL-4 mutant K77A (from UniProt P05112 25-153) (ligand)”, the Conc needed for 50% growth (TF1.8 Bioassay), average stood at 1.55 ng/mL. With “IL-4 mutant R85A (from UniProt P05112 25-153) (ligand)”, the Conc needed for 50% growth (TF1.8 Bioassay), average worked out at 0.71 ng/mL.

Take “IL-4 mutant K42A (from UniProt P05112 25-153) (ligand)”: the Conc needed for 50% growth (TF1.8 Bioassay), average turned out to be 0.67 ng/mL. “IL-4 mutant R75A (from UniProt P05112 25-153) (ligand)” registered a Conc needed for 50% growth (TF1.8 Bioassay), average of 0.63 ng/mL. “IL-4 mutant R88V (from UniProt P05112 25-153) (ligand)” displayed a Conc needed for 50% growth (TF1.8 Bioassay), average of 415 ng/mL. For “IL-4 mutant E9A (from UniProt P05112 25-153) (ligand)”, the Conc needed for 50% growth (TF1.8 Bioassay), average was determined as 76.1 ng/mL.
